Laboratory results reported in US20200079851A1 (University of Texas, published 2020).
Residue numbers refer to the chain shown, from its start. Blank lines part the entries; values can stand above or below the binder they belong to.

What was measured:
[1] = target: T1, human LILRB4 (human, UniProt Q8NHJ6 22-259, limits assumed); test: ELISA
T1 construct: also called leukocyte immunoglobulin-like receptor subfamily B member 4

[2] = target: T1, human LILRB4; test: ELISA, OD450 against antibody concentration
[3] = target: T1, human LILRB4; test: ELISA, OD450 against antibody concentration; remark: listed apart in the source
[4] = target: T1, human LILRB4; test: reactivity table, assay not named on the sheet
[5] = target: T2, LILRB5 (human, UniProt O75023 24-458, limits assumed); test: reactivity table, assay not named on the sheet
[6] = target: T3, LILRB3 (human, UniProt O75022 24-443, limits assumed); test: flow cytometry on LILRB3-overexpressing 293T cells, mAb at 2 ug/ml
T3 construct: also called leukocyte immunoglobulin-like receptor subfamily B member 3

[7] = target: D2-SR-M16(210-259); test: ELISA, mAb titrated on D2-SR-M16(210-259)
[8] = target: T1, human LILRB4; test: ELISA, OD450 against antibody concentration; remark: listed apart in the source
[9] = target: T4, LILRB2 (human, UniProt Q8N423 22-458, limits assumed); test: flow cytometry on LILRB2-overexpressing 293T cells, mAb at 2 ug/ml
T4 construct: also called leukocyte immunoglobulin-like receptor subfamily B member 2

[10] = target: T1, human LILRB4; test: ELISA, OD450 against antibody concentration; remark: listed apart in the source
[11] = target: T1, human LILRB4; test: ELISA, OD450 against antibody concentration; remark: listed apart in the source
[12] = target: T1, human LILRB4; test: ELISA, OD450 against antibody concentration; remark: listed apart in the source
[13] = target: T5, LILRB1 (human, UniProt Q8NHL6 24-458, limits assumed); test: cross-reactivity test on the LILRBs (ELISA per paragraph 433)
T5 construct: also called leukocyte immunoglobulin-like receptor subfamily B member 1

[14] = target: T4, LILRB2; test: as above
[15] = target: T3, LILRB3; test: as above
[16] = target: T2, LILRB5; test: as above
[17] = target: T6, D2; test: matrix of binding to LILRB4 domain-Fc fusions (FIG. 47); ELISA per paragraph 433
T6 construct: also called LILRB4 D2-hIgG1-Fc; second Ig-like domain of LILRB4 as Fc fusion

[18] = target: T7, SR; test: as above
T7 construct: also called LILRB4 SR-hIgG1-Fc; stalk region of LILRB4 as Fc fusion

[19] = target: T1, human LILRB4; test: flow cytometry on LILRB4-overexpressing 293T cells, mAb at 2 ug/ml
[20] = target: T1, human LILRB4; test: ELISA, OD450 against antibody concentration; remark: listed apart in the source
[21] = target: T3, LILRB3; test: cross-reactivity ELISA (FIG. 46)
[22] = target: T2, LILRB5; test: cross-reactivity ELISA (FIG. 46)
[23] = target: T1, human LILRB4; test: ELISA, OD450 against antibody concentration; remark: listed apart in the source
[24] = target: T1, human LILRB4; test: ELISA, OD450 against antibody concentration; remark: listed apart in the source

T2 sequence (O75023 24-458 limits assumed): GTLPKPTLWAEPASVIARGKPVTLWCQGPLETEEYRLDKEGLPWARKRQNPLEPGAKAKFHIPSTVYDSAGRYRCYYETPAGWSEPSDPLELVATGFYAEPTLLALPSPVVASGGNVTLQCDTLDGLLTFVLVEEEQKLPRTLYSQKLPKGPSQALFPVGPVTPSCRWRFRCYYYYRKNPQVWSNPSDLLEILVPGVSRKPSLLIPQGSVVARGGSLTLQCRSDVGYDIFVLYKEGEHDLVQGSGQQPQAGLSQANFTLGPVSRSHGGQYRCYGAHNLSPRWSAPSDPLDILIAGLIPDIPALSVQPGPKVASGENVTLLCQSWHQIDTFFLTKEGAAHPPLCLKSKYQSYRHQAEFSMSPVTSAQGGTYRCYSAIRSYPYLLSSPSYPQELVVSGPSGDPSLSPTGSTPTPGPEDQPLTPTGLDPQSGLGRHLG
T4 sequence (Q8N423 22-458 limits assumed): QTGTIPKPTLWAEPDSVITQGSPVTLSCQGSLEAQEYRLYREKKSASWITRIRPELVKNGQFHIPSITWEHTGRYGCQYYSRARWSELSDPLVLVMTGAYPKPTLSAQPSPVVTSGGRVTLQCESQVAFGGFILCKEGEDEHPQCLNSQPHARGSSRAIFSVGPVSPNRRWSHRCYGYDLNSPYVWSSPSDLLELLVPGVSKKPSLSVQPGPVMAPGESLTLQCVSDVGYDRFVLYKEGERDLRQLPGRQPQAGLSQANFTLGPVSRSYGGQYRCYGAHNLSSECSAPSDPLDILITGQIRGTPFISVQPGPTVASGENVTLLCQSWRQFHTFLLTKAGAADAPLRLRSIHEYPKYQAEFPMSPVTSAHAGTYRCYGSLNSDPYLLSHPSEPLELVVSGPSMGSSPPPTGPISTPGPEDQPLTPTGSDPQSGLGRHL
T3 sequence (O75022 24-443 limits assumed): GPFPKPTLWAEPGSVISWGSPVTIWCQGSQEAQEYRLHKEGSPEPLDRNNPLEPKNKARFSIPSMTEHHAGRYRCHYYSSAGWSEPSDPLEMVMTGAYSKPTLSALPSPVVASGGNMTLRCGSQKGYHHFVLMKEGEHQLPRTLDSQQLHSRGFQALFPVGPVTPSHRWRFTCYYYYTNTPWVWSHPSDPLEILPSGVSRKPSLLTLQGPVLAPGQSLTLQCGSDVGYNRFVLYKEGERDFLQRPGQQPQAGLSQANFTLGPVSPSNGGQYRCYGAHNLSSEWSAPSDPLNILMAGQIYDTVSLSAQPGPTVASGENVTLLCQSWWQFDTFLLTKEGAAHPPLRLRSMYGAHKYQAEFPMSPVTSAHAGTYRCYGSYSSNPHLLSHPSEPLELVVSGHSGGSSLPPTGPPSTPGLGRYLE
T5 sequence (Q8NHL6 24-458 limits assumed): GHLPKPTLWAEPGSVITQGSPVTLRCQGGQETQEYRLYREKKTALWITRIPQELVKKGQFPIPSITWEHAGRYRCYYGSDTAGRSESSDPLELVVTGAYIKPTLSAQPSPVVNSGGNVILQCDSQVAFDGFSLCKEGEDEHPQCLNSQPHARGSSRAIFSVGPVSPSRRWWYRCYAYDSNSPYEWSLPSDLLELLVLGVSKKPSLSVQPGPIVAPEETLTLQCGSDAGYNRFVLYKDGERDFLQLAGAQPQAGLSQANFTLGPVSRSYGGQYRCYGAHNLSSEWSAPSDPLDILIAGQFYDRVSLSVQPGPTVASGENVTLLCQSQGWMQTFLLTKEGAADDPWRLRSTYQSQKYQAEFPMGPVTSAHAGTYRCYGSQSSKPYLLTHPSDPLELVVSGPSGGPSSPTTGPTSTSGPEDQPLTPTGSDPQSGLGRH
T7 sequence (fusion chain, as listed by the source): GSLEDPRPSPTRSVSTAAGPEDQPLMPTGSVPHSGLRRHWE
T6 sequence (fusion chain, as listed by the source): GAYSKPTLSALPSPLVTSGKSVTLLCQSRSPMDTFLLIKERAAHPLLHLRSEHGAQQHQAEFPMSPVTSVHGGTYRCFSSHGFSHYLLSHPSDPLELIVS
Sequence of D2-SR-M16(210-259) (chain, as listed by the source): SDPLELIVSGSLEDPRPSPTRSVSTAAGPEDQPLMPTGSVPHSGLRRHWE

B1: anti-LILRB4 rabbit monoclonal antibody #156-1 (antibody, V domains shown)
VH: QSVKESEGDLVKPGASLTLTCRASGFSFSSDYNMCWVRQAAGKGLEWIACIGVGTSGKTAYATWAKGRFTISRSSSTTVALQMTSLTVADTATYFCARPSYGSGGEGGGSGLWGPGTLVTISS
VL: ELDLTQTPASVSEPVGGTVTIKCQASQSIHSDLAWYQQKPGQRPKLLIYVASYLASGVPSRFSGSGSGTEYTLTISDLECADAATYYCQSTYYGSDYVGGAFGGGTEVVVK
notes: Rabbit mAb
EC50 [1]: 0.0828 nM
EC50 [2]: 0.0124 µg/mL

B2: anti-LILRB4 rabbit monoclonal antibody #223 (antibody, V domains shown)
VH: EQSVKESGGRLVTPGTPLTLTCIVSGFSLNNYAISWVRQAPEKGLEWIGMIRSDGHVDYATWAKGRFTISKTSTTVDLKMTSLTTEDTATYFCARGGHFFNPWGPGTLVTISS
VL: ELVMTQTPSPVSAAVGGTVTISCQSSQTVYNYNELAWYQQKPGQPPKLLIDAASTLASGVPSRFSGSGSGTQFTLKISEVQCDDAATYYCQGTYYISGWYYTFGGGTEVVVK
notes: Rabbit mAb
EC50 [1]: 0.0897 nM
EC50 [3]: 0.0274 µg/mL

B8: anti-LILRB4 rabbit monoclonal antibody #129 (antibody, V domains shown)
VH: EQSVKESGGGLVKPGASLTLTCTASGFSFSSSYHMCWVRQAPGKGLEWIGCIATGYGSTYYASWAKGRFTISKTSSTTVTLQVPSLTAADTATCFCARGYYRYTSDSYGYFDLWGPGTLVTISS
VL: ELVLTQTASPVSAAVGGTVTVNCQASQSISSGYLSWYQQKPGQPPKLLIYYASRLASGVPSRFSGSGSGTEYTLTISGVQCDDAATYYCLYVSYDGTTTDNAFGGGTEVEIK
EC50 [1]: 0.0901 nM
EC50 [12]: 0.0135 µg/mL
binding result [13]: no binding
binding result [14]: no binding
binding result [15]: no binding
binding result [16]: no binding
binding result [17]: no binding
binding result [18]: no binding

B9: anti-LILRB4 mAb C201 (antibody, V domains shown)
VH: DVQLQESGPGLVKPSQSLSLTCTVTGYSITSDYAWNWIRQFPGNKLEWMGYISYSGGTSYNPSLKSRISITRDTSKNQFFLQLNSVTTEDTATYYCARLHYGYDYWGLGTTLTVSS
VL: DVLMTQTPLSLPVSLGDQASISCRSSQSIVHSNGNTYLEWYLQKPGQSPKLLIYKVSNRFSGVPDRFSGSGSGTDFTLKISRVEAEDLGVYYCFQGLHVPPTFGGGTKLEIK
notes: Mouse mAb
binding result [5]: binds
% of cells in the positive gate [19]: 38.3%

B10: anti-LILRB mAb C102 (antibody, V domains shown)
VH: EVQLQQSGPELVKPGASVKISCKTSGYTFTEYTMHWVKQSHGKSLEWIGGINPNNGGTSYNQKFKGKATLTVDKSSSTAYMDLRSLTSEDSAVYYCARYWDYFDYWGQGTTLTVSS
VL: B9 VL with Y41F, L97S, H98Q, V99I
notes: mAb against LILRB2
% of cells in the positive gate [9]: 5.22%

B11: anti-LILRB4 rabbit monoclonal antibody #214 (antibody, V domains shown)
VH: QSVKESGGRLVTPGTPLTLTCTVSGFSLSSYWMHWVRQAPGKGLEWVGVVSVSGNFYYATWAKGRFTISKTSTTVDLKITSPTIEDTAFYFCTMSFALWGQGTLVTISS
VL: ELVMTQTASPVSAAVGGTVTINCQSSQSVYSNNNLGWLKQKPGQPPKELIYYASTLASGVPSRFKGSGSGTQFTLTISDLECDDAATYYCVGGYGCSSADCSVFGGGTEVEIK
notes: Rabbit mAb
EC50 [20]: 0.00764 µg/mL

More lines, now with the values ahead:

binding result [4]: binds
binding result [5]: binds
% of cells in the positive gate [6]: 64%
B3: anti-LILRB mAb C290 (antibody, V domains shown)
VH: EVQLLQSGPELVKPGASVKISCRTSGYTFTEYTMHWVKQSHGKSLEWIGGINTNNGGTSYNQKFKGKATLTVDKSSSTAYMELRSLTSEDSAVYYCARDKRSRGELDSTMDYWGQGTSVTVSS
VL: DIVMTQAAPSVPVTPGESVSISCRSSKSLLHSNGNTYLYWFLQRPGQSPQLLIYRMSNLASGVPDRFSGSGSGTAFTLRISRVEAEDVGVYYCMQHLEYPFTFGSGTMLEIK
notes: mAb against LILRB3

EC50 [1]: 0.183 nM
EC50 (read off the curve) [7]: ~0.04 µg/mL
EC50 [8]: 0.0274 µg/mL
B4: anti-LILRB4 rabbit monoclonal antibody #140 (antibody, V domains shown)
VH: EQSLKESGGRLVTPGTPLTLTCTASGFSLSTYDMSWVRQAPGKGLEWIGIISTSYSIYYTYYASWAKGRFTISRTSSTTVDLKMTSLTTEDTATYFCVGGGGKLNSVVYYIRGLRFWGQGTLVTISS
VL: ELVMTQTPSSTSAAVGGTVTINCQASQSVYDDNWCSWYQQKPGQPPKLLIYDASTLPSGVPSRFKGSGSGTQFTLTISDLECDDAATYYCAGAYSDNIYVFGGGTEVEIK
notes: also called mAb 140

% of cells in the positive gate [9]: 15%
B5: anti-LILRB mAb C193 (antibody, V domains shown)
VH: EVQLVESGGGLVQPKGSLRLSCAASGFIFNTYAMNWVRQAPGKGLEWVARIRSKSNKYATYYVDSVKDRFTISRDDSQSMLYLQMNNLKTEDTAMYYCVRDGIWGQGTLVTVSA
VL: DIVMTQSPSSLTVTAGEKVTMSCKSSQSLLNSGNQKNYLTWYHQKPGQPPKLLIYWAFTRESGVPDRFTGSGSGTDFTLTISSVQAEDLAVYYCQNDYSYPLTFGSGTKLEIK
notes: mAb against LILRB2

EC50 [1]: 0.139 nM
EC50 [10]: 0.0209 µg/mL
B6: anti-LILRB4 rabbit monoclonal antibody #128-1 (antibody, V domains shown)
VH: EQSVEESEGRLVTPGGSLTLTCTVSGFGLSSWAMAWVRQAPGKGLEWIGIIGVSGKIYYPTWAKGRFTISRTSTTVDLKIASPTTEDTATYFCAREPYGDSLWGQGTLVTISS
VL: ELVMTQTPSPVSAAVGGTVTISCQSSQNISTYLSWYQQKPGQPPKFLIYQASKLASGVSSRFKGSGSGTQFTLTISDVQCDDAASYYCAGWKSYSNDDNDFGGGTEVVVK
notes: Rabbit mAb

EC50 [11]: 0.0459 µg/mL
B7: anti-LILRB4 rabbit monoclonal antibody #216-1 (antibody, V domains shown)
VH: EQSVEESGGGLVKPGASLTLTCIASGFSFSSSYVMCWVRQAPGKGLELIACIHAGGSGSTYYASWAKGRFTISKTSSTTVTLQMTSLTAADTATYFCARYNYHFYYIGDYSDLWGPGTLVTVSS
VL: ELVMTQTPSSVSAAVGGTVTIKCQASEDIDSYLAWYQQKPGQRPKVLIYRASTLASGVPSRFKGSGSGTEFTLTISGLECDDAATYYCQQGWSNDVGSNAFGGGTKVEIK
notes: Rabbit mAb

EC50 [1]: 0.0997 nM
binding result [21]: binds
binding result [22]: binds
EC50 [23]: 0.0149 µg/mL
binding result [13]: no binding
binding result [14]: no binding
binding result [17]: no binding
binding result [18]: no binding
B12: anti-LILRB4 rabbit monoclonal antibody #210 (antibody, V domains shown)
VH: EQSVEESGGRLVTPGTPLTLTCTVSGFSLSSYIMGWVRQARGKGLEYIGAINTDGATYYATWAKGRFTISRTSTTVHLKVTSPTTEDTATYFCARSLAPGDSNINLWGQGTLVTISS
VL: ELVLTQTPSPVSAAVGGTVTISCQSSESVYRNNRLAWYQQKPGQPPKRLIYLASTLASGVPSRFKGSGSGTQFTLTISDVQCDDAAAYYCAGDSGVGIIAFGGGTEVEIK

EC50 [1]: 0.118 nM
EC50 [24]: 0.0177 µg/mL
B13: anti-LILRB4 rabbit monoclonal antibody #101 (antibody, V domains shown)
VH: HSVKESGGGLVTPGESLKLTCKASGMDFSKYWICWVRQAPGKGLEWIACIDTGRSAITVYAKWAKGRFTISKTSSTTVTLQMTTLTAADTATYFCETSVDLWGPGTLVTISS
VL: ELDLTQTPASVEAAVGGTVTIKCQASESIYSGLAWYKQKPGQPPKFLILSASTQASGVPSRFKGSGSGTEFTLTISDLECADAATYYCQSRHYGSSRSYGFAFGGGTEVEIK
notes: Rabbit mAb
